The record followed here is US20240150451A1 (Janssen / Centocor, published 2024).

Numbering of substitutions follows the chain as printed.

In test [1] the target is T1, PHF-tau (paired helical filament tau; sarcosyl insoluble prep from human AD brain) (human, UniProt P10636-8 2-441, limits assumed, hyper-phosphorylated (sites not specified)).
T1 construct: also called aggregated PHF Tau; aggregated tau (AD brain)
Kind of test: SPR (ProteOn), Fab on PHF-tau, 1:1 Langmuir fit. The protocol:
(§1) The interactions with PHF-tau and recombinant tau were assessed by SPR on ProteOn (Bio-Rad, Hercules, CA) instrument for PT66, PT69, hTau60 anti-tau antibodies and their corresponding Fab fragments. Because of the multimeric/aggregated nature of PHF-tau with multiple copies of the epitope, and the bivalent nature of IgGs, mAb affinity was influenced by avidity in this study format. Fab affinity provides information on the intrinsic affinity of the antibody. Representative sensorgrams of mAbs and their Fab fragments binding to PHF Tau are shown in FIG. 3 and a summary is represented in Table 1 below. HT7 was used as a reference.

The target of test [2] is T2, recombinant full-length tau 2N4R (control tau) (human, UniProt P10636 2-758).
T2 construct: also called recombinant WT (2N4R) tau; Rec; Tau
As to the kind of experiment: SPR (ProteOn), Fab on recombinant full-length tau, 1:1 Langmuir fit. The protocol: as §1

Test [3] addresses T2, recombinant full-length tau 2N4R …. As to the kind of experiment: direct ELISA, 10 ng/well coated control tau, hybridoma screening. The protocol:
Obtained hybridomas were seeded in 96-well plates and screened after 10 days in a direct ELISA on 25 ng/well coated PHF-tau as described below. Positive cells were tested for cross-reactivity on 10 ng/well coated with control tau (SEQ ID NO: 51) expressed in E. Coli BL21 cells and purified by heat treatment and ammonium sulphate precipitation. […] PT/66, PT/69 and hTau/60 were prioritized for V-region cloning and humanization.
In general terms: An ELISA detects its analyte on a solid surface through an enzyme-linked reagent.

Test [4] deals with T3, Tau peptide Start 415 Stop 434.
T3 peptide: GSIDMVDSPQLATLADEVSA
Kind of test: Pepscan ELISA on an array of linear 20-mer Tau 441 peptides. On the set-up: peptide ELISA signal (no name or unit printed): unit not given here. The text has this:
(§2) An amino functionalized polypropylene support was obtained by grafting with a proprietary hydrophilic polymer formulation, followed by reaction with t-butyloxycarbonyl-hexamethylenediamine (BocHMDA) using dicyclohexylcarbodiimide (DCC) with N-hydroxybenzotriazole (HOBt), and subsequent cleavage of the Boc-groups using trifluoroacetic acid (TFA). Standard Fmoc-peptide synthesis was used to synthesize peptides on the amino-functionalized solid support by custom modified JANUS liquid handling stations (Perkin Elmer). Synthesis of structural mimics was done using Pepscan's proprietary Chemically Linked Peptides on Scaffolds (CLIPS) technology. CLIPS technology allows to structure peptides into single loops, double loops, triple loops, sheet-like folds, helix-like folds, and combinations thereof. CLIPS templates are coupled to cysteine residues. The side-chains of multiple cysteines in the peptides are coupled to one or two CLIPS templates. For example, a 0.5 mM solution of the P2 CLIPS (2,6-bis(bromomethyl)pyridine) is dissolved in ammonium bicarbonate (20 mM, pH 7.8)/acetonitrile (1:3 (v/v)). This solution is added onto the peptide arrays. The CLIPS template will bind to side-chains of two cysteines as present in the solid-phase bound peptides of the peptide-arrays (455 wells plate with 3 μl wells). The peptide arrays are gently shaken in the solution for 30 to 60 minutes while completely covered in solution. Finally, the peptide arrays are washed extensively with excess of H₂O and sonicated in disrupt-buffer containing 1% SDS/0.1% beta-mercaptoethanol in PBS (pH 7.2) at 70° C. for 30 minutes, followed by sonication in H₂O for another 45 minutes. The T3 CLIPS carrying peptides were made in a similar way but now with three cysteines.
(§3) The binding of antibodies (recombinantly expressed as IgG2a) to each of the synthesized peptides was tested in a pepscan-based ELISA. The peptide arrays were incubated with primary antibody solution (overnight at 4° C.). After washing, the peptide arrays were incubated with a 1/1000 dilution of an appropriate antibody peroxidase conjugate (SBA; Table 4) for one hour at 25° C. After washing, the peroxidase substrate 2,2′-azino-di-3-ethylbenzthiazoline sulfonate (ABTS) and 20 μl/ml of 3 percent H₂O₂ were added. After one hour, the color development was measured.

The target in test [5] is T4, Tau peptide Start 417 Stop 436.
T4 peptide: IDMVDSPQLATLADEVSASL
The description is as above. Further details: peptide ELISA signal (no name or unit printed): unit not given here.
Excerpt: as §2, §3

Test [6] addresses T5, Tau peptide Start 419 Stop 438.
T5 peptide: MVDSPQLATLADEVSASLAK
Described as above. Further details: peptide ELISA signal (no name or unit printed): unit not given here.
Excerpt: as §2, §3

Test [7] has as its target T6, Tau peptide Start 421 Stop 440.
T6 peptide: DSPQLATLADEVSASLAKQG
The description is as above. On the set-up: peptide ELISA signal (no name or unit printed): unit not given here.
Excerpt: as §2, §3

Test [8] addresses T7, Tau peptide Start 422 Stop 441.
T7 peptide: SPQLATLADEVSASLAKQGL
The test is described as above. Further details: peptide ELISA signal (no name or unit printed): unit not given here.
Excerpt: as §2, §3

The target in test [9] is Tau peptide Start 1 Stop 20 (Synthetic linear peptide immobilised on a Pepscan array; the attachment to the array cannot be carried by the letters.). The description is as above. On the set-up: peptide ELISA signal (no name or unit printed): unit not given here.
Excerpt: as §2, §3

Test [10] addresses T8, Tau peptide Start 3 Stop 22 (Synthetic linear peptide immobilised on a Pepscan array; the attachment to the array cannot be carried by the letters.).
T8 peptide: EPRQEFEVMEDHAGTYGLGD
The description is as above. Further details: peptide ELISA signal (no name or unit printed): unit not given here.
Excerpt: as §2, §3

For test [11], the target named is T9, Tau peptide Start 411 Stop 430.
T9 peptide: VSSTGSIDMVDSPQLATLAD
Described as above. On the set-up: peptide ELISA signal (no name or unit printed): unit not given here.
Excerpt: as §2, §3

Test [12] addresses T10, Tau peptide Start 413 Stop 432.
T10 peptide: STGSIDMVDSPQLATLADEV
Described as above. Further details: peptide ELISA signal (no name or unit printed): unit not given here.
Excerpt: as §2, §3

Chain of Tau peptide Start 1 Stop 20 (Synthetic linear peptide immobilised on a Pepscan array; the attachment to the array cannot be carried by the letters.) (peptide, as listed by the source limits assumed): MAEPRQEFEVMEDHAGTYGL

B1: hTau60 Fab (chimeric: mouse variable domains, human IgG1/kappa constant domains, His tag) (Fab, V domains shown)
VH: EVQLQQSGPELVKPGTSVKISCKVFGYTFTDYYMNWVKQSHGKSLEWIGDINPDNGETTYNQKFKGKATLTVDKSSSTAYMELRSLTSEDSAVYYCAKGATFVYWGQGTLVTVSA
VL: DVVMTQTPLSLPVSLGDQASISCISSQSLVHSTGTTFLHWFLQKPGQSPKLLIYKVSNRFSGVPDRFSGSGSGTDFTLKISRVEAEDLGFYFCSQSTYFPLTFGSGTKLEIK
notes: Fab expressed in HEK293F cells; also called hTau60 Fab fragment; not shown: His tag at the C-terminus of the heavy chain; human kappa light chain constant domain
For the molecule B1, the equilibrium dissociation constant (Kd) in [1] was found to be 0.427 nM; in test [2] it was 0.026 nM.

B2: PT53 monoclonal antibody (recombinant, mouse IgG2a/kappa) (antibody, V domains shown)
VH: EVKLMESGGGLVQPGASLRLSCAASGFTFTDYYMSWVRQPPGKAPEWLALIRNKANGYTTKYAASVKGRFTISRDNSQNILYLQMNTLRAEDSATYYCVKAVWFAYWGQGTLVTVSA
VL: DIVITQDELSNPVTSGESVSISCRSSKSLLYKDGKTYLNWFLQRPGQSPQLLIYLMSTRASGVSDRFSGSGSGTDFTLEISRVKAEDVGVYYCLQLVEYPYTFGGGTKLEIKR
notes: also called PT50/PT53
For B2, the results for the binding result in test [3], in test [4] and in test [12] were “binds”, “no binding” and “no binding”, respectively. In addition, the “peptide ELISA signal (no name or unit printed)” value in test [4] is 40; in test [5] it was 637; in test [6], 2090; in test [7], 2880; in test [8], 2930; in test [9] it was 38. The “peptide ELISA signal (no name or unit printed)” value stood at 44 in test [10], 29 in test [11] and 38 in test [12].

B3: PT81 monoclonal antibody (recombinant, mouse IgG2a/kappa) (antibody, V domains shown)
VH: QVQLQQPGAELVRPGASVILSCKASGYTFTNSWIHWVKQRPGRVLEWIGRIDPNSGGTRYNENFKSKATLTVDKPSSTAYMQLSSLTSEDSAVYFCSRGVLHDYWGQGTTLTVSS
VL: B2 VL with G69V, K84Q, L94Q
With B3, the binding result in [3] is recorded as “binds”; in test [4], “no binding”; in test [12], “no binding”. Moreover, the “peptide ELISA signal (no name or unit printed)” value was 78 in [4]; 2800 in test [5]; 2900 in [6]; 2900 in test [7]; 2920 in test [8]; 43 in test [9]. The “peptide ELISA signal (no name or unit printed)” value in [10] stood at 45; in [11] it was 31; in [12] it was 30.

B4: PT66 Fab (chimeric: mouse variable domains, human IgG1/kappa constant domains, His tag) (Fab, V domains shown)
VH: QVQLQQPGAELVKPGASVKMSCKASGYTFTSYWITWVKQRPGQGLEWIGDIHPGRGSTKSNEKFKSKATLTVDTSSSTAYMQFSSLTSEDSAVYYCARRWGFDYWGQGTTLTVSS
VL: DIVITQDELSNPVTSGESVSISCRSSKSLLYKDGKTYLNWFLQRPGQSPQLLIYLMSTRASGVSDRFSGSGSGTDFTLEISRVKAEDVGVYYCQQLVDYPLTFGAGTKLELK
notes: Fab expressed in HEK293F cells; also called PT66 Fab fragment; not shown: His tag at the C-terminus of the heavy chain; human kappa light chain constant domain
B4: the Kd stood at 0.514 nM in test [1] and 0.04 nM in test [2].

As a reminder, the Kd is the equilibrium constant for the complex coming apart.
